Usually Kd stands for the equilibrium constant for the complex coming apart.

This experiment has as its target recombinant equine Keap1, GST-tagged, biotinylated (equine) (UniProt F6VZG9). The experiment in a line: BLI; biotinylated Keap1 (65 μg/ml) loaded on streptavidin-coated biosensors; various concentrations of Rev or Nrf2 in PBST (PBS, 0.1 mg/ml BSA, 0.002% Tween 20, pH 7.2); room temperature; Octet Red. A general note: In BLI a coated tip is dipped into the sample, and binding shifts an interference pattern.

As for “recombinant EIAV Rev, MBP-tagged (natural protein)”, the Kd was 494 nM.

On to “recombinant equine Nrf2, His-tagged (natural protein)”, for which the dissociation constant Kd came to 400 nM.

The values are drawn from publication PMC8863222.
